These results are taken from PMC4220643 (2014).

The target of assay [1] is Im7-D2 (C-terminal domain of D2 fused to Im7) (Thermosynechococcus elongatus, UniProt Q8CM25 289-352). The assay is described as follows: SPR. A general note: SPR reads the build-up and loss of mass on a sensor chip optically.
Assay [2] deals with Im7-D1a (D1 a-loop fused to Im7) (Thermosynechococcus elongatus, UniProt P0A444 54-113). As to the kind of experiment: SPR.
Im7-D1a (D1 a-loop fused to Im7), sequence (P0A444 54-113): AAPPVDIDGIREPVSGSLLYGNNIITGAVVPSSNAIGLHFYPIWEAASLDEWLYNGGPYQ

Im7-D2 (C-terminal domain of D2 fused to Im7), sequence (Q8CM25 289-352): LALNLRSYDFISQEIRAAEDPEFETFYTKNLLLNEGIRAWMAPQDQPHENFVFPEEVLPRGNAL

B1: PsbO (natural protein)
chain: AKQTLTYDDIVGTGLANKCPTLDDTARGAYPIDSSQTYRIARLCLQPTTFLVKEEPKNKRQEAEFVPTKLVTRETTSLDQIQGELKVNSDGSLTFVEEDGIDFQPVTVQMAGGERIPLLFTVKNLVASTQPNVTSITTSTDFKGEFNVPSYRTANFLDPKGRGLASGYDSAIALPQAKEEELARANVKRFSLTKGQISLNVAKVDGRTGEIAGTFESEQLSDDDMGAHEPHEVKIQGVFYASIEPA
In general, Kd refers to the constant that tells how readily two partners part at equilibrium. A low value points to higher affinity. Consider B1, for which the figures for the Kd in assay [1] and in assay [2] were roughly 41 µM and roughly 60 µM, respectively.
